The values that follow come from paper PMC4339722, “Analysis of the Link between the Redox State and Enzymatic Activity of the HtrA (DegP) Protein from Escherichia coli” (PLoS ONE, 2015).

This data set deals with the molecule itself. Description: cross-linking + SEC; with 2.5-, 5- or 10-fold molar excess of the 22-peptide …; HtrA variants 10 μM monomer, 15 min 37°C then 10 h 4°C in 20 mM HEPES-NaOH pH 8.0, 100 mM NaCl; BS^3 0.45 mM, 30 min room temperature; Superose 12 10/300 GL, 25°C.

B1: HtrA-S210A (oxidized control variant, as used in cross-linking and SEC) (enzyme, Escherichia coli, UniProt P0C0V0 27-474, looked up)
chain: AETSSATTAQQMPSLAPMLEKVMPSVVSINVEGSTTVNTPRMPRNFQQFFGDDSPFCQEGSPFQSSPFCQGGQGGNGGGQQQKFMALGSGVIIDADKGYVVTNNHVVDNATVIKVQLSDGRKFDAKMVGKDPRSDIALIQIQNPKNLTAIKMADSDALRVGDYTVAIGNPFGLGETVTSGIVSALGRSGLNAENYENFIQTDAAINRGNAGGALVNLNGELIGINTAILAPDGGNIGIGFAIPSNMVKNLTSQMVEYGQVKRGELGIMGTELNSELAKAMKVDAQRGAFVSQVLPNSSAAKAGIKAGDVITSLNGKPISSFAALRAQVGTMPVGSKLTLGLLRDGKQVNVNLELQQSSQNQVDSSSIFNGIEGAEMSNKGKDQGVVVNNVKTGTPAAQIGLKKGDVIIGANQQAVKNIAELRKVLDSKPSVLALNIQRGDSTIYLLMQ
modifications: disulfide bond Cys57-Cys69 (oxidized)
notes: HtrA (DegP) serine protease, Escherichia coli; polypeptide chain of 448 residues as printed; also called oxidized control (S210A); control HtrA
The stoichiometry N is the number of molecules, sites or subunits per partner or assembly. Regarding B1, the “stoichiometry N” value came out at 12.
